This note sets out measurements from paper doi:10.1101/2022.04.28.489915 (bioRxiv, 2022).

This assay has as its target T1, TolC (E. coli, UniProt P02930 23-493).
T1 sequence: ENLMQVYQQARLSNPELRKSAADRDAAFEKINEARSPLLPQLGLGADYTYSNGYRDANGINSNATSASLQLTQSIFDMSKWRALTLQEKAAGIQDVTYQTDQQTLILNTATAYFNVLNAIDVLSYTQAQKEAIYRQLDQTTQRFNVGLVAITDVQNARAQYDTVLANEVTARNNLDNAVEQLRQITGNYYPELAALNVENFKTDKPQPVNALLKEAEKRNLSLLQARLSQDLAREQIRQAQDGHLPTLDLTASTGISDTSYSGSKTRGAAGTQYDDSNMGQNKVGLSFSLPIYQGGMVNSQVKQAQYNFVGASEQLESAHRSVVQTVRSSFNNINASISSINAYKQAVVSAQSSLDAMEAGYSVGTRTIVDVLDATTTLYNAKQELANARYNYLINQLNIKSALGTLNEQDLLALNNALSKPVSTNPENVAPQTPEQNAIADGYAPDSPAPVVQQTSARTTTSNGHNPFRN
Briefly: SEC.

B1: residues 1-190 of colicin E1 (colE1-T) (domain or fragment)
chain: METAVAYYKDGVPYDDKGQVIITLLNGTPDGSGSGGGGGKGGSKSESSAAIHATAKWSTAQLKKTQAEQAARAKAAAEAQAKAKANRDALTQRLKDIVNEALRHNASRTPSATELAHANNAAMQAEDERLRLAKAEEKARKEAEAAEKAFQEAEQRRKEIEREKAETERQLKLAEAEEKRLAALSEEAKA
As for B1, the binding result is given as “binds”.
